Laboratory results reported in the supplement of paper PMC9170038.

system: MS2 coat protein; experiment: apparent KD of MS2 coat protein; designed switch direction (-1 OFF switch, 1 ON switch): 1; higher = weaker reporter binding; conditions: Eterna round: R98; input ligand: FMN 200 uM
Method: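 RNA-MaP: designed FMN/MS2 RNA switches (84 nt design region) are transcribed on-chip within common flanks and titrated with SNAP-549-labelled MS2 coat protein (about 1-3000 nM) in 100 mM Tris pH 7.5, 80 mM KCl, 4 mM MgCl2, without or with 200 uM FMN. Median apparent KD per design; activation ratio = KD,OFF / KD,ON.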

Sequence | apparent KD of MS2 coat protein [nM]
AAAACAUGAGGAUCACCCAUGUAAAGAACGGUUAAUUAAAGUGAGGAUAUACAAAAUUUUAUAUAGUAGAAGGCACUGGGUACA [JR_SSNG3_Sub022] | 24.9
GACGAAAUCUUAGGAUAUGCUCAGGAAUACUGAGCAGAAGGAAGAUAUACCUGAGGAUCACCCAGGUUAAACUGGACGUCAAUA [Same State NG1 - A3C, U17G Submission 8I U7A] | 24.9
GUAGCAUACCGAGGAUAUUCAUCCGGAUUACGGACAUGAGGAUCACCCAUGUGGCGAAAGCCUUGGGAGAAGGCGGAAUGCUAC [Xeinanis 75 33] | 34.4
GUAGCAUACAGAGGAUAUUCAAACCGGAAACGGACAUGAGGAUCACCCAUGUGGCGAAAGCCUAGGGAGAAGGCUGAAUGCUAC [Xeinanis 75 40] | 11.7
CCCUCCAGAAGAGGGACAUGAGGAUCACCCAUGUAGGCUGCACAGGAUAUCGAUCGGAGGCGGUACGAGAAGGGUGACGUCAUU [Atleis] | 48.7
AAAACAUACCGAGGAUAUUCAUUUUAUAAAUAAACAUGAGGAUCACCCAUGUGGCAAAAGCCUAGGGAGAAGGCGGAAUGCUAA [salish99_SSNG2_r2_121] | 29.9
GUCCCAGUCACAGGAUAUGGCUCCGUAAUGGAGCCAGAAGGGUGAUAUUCAGAAAACACACAUGAGGAUCACCCAUGUAAUAAA [Enindiinso] | 188
GCUUGCGACGCAGGAUAUGGGUGCCUGCACAUGAGCAUCAGCCAUGUUGAGGAACGGAUUACGUCUCAGAAGGGCGUGGCAGGC [United States 3 - Jieux - Same State NG 2] | 16.7
UGAUCGCUUGGAGGAUAUCCAACUAUCCUAGUUGGAGAAGGCCAAGCUACAGAGCUAAGCUUGGAAGUCACUUCGGAUCAACAC [pwkr ssNG1 F9.4.1] | 65.5
GCAGAAGGUGCGGAGGAUCACCCUGUAAGGAUAUGCAUUAGCAAGGAUAUACAGAGGAUCACCCUGUAGAAGGUGCACUACUCA [pwkr2 ssNG3 DX.3] | 562
CACACAUGGUGAGGAUAUGCAGAGGAUCACCCUGUAGAAGGCAUCAGGGUAGAAGGUGCAAGGAUCACCUGUAAGGAUAUAUCC [pwkr2 ssNG1 DX.27] | 1030
CCUGACACUUGAGGAUAUGCUCAGGAUAACUGAGCAGAAGGCAGGAAAACCUGAGGAUCACCCAGGUAAGUCAGGAAUAAUAAA [Same State NG1 - A3C, U17G Submission 3B] | 15.8
UAUAUAUGGUGAGGAUAUGCAGAGGAUCACCCUGUAGAAGGCAUCAGGGUAGAAGGUGCAAGGAUCACCUGUAAGGAUAUAUCC [pwkr2 ssNG1 DX.30] | 587

same assay, conditions: Eterna round: R98; input ligand: none

Sequence | apparent KD of MS2 coat protein [nM]
AAAACAUGAGGAUCACCCAUGUAAAGAACGGUUAAUUAAAGUGAGGAUAUACAAAAUUUUAUAUAGUAGAAGGCACUGGGUACA [JR_SSNG3_Sub022] | 21.4
GACGAAAUCUUAGGAUAUGCUCAGGAAUACUGAGCAGAAGGAAGAUAUACCUGAGGAUCACCCAGGUUAAACUGGACGUCAAUA [Same State NG1 - A3C, U17G Submission 8I U7A] | 29.4
GUAGCAUACCGAGGAUAUUCAUCCGGAUUACGGACAUGAGGAUCACCCAUGUGGCGAAAGCCUUGGGAGAAGGCGGAAUGCUAC [Xeinanis 75 33] | 369
GUAGCAUACAGAGGAUAUUCAAACCGGAAACGGACAUGAGGAUCACCCAUGUGGCGAAAGCCUAGGGAGAAGGCUGAAUGCUAC [Xeinanis 75 40] | 16
CCCUCCAGAAGAGGGACAUGAGGAUCACCCAUGUAGGCUGCACAGGAUAUCGAUCGGAGGCGGUACGAGAAGGGUGACGUCAUU [Atleis] | 26.9
AAAACAUACCGAGGAUAUUCAUUUUAUAAAUAAACAUGAGGAUCACCCAUGUGGCAAAAGCCUAGGGAGAAGGCGGAAUGCUAA [salish99_SSNG2_r2_121] | 39.6
GUCCCAGUCACAGGAUAUGGCUCCGUAAUGGAGCCAGAAGGGUGAUAUUCAGAAAACACACAUGAGGAUCACCCAUGUAAUAAA [Enindiinso] | 774
GCUUGCGACGCAGGAUAUGGGUGCCUGCACAUGAGCAUCAGCCAUGUUGAGGAACGGAUUACGUCUCAGAAGGGCGUGGCAGGC [United States 3 - Jieux - Same State NG 2] | 19.9
UGAUCGCUUGGAGGAUAUCCAACUAUCCUAGUUGGAGAAGGCCAAGCUACAGAGCUAAGCUUGGAAGUCACUUCGGAUCAACAC [pwkr ssNG1 F9.4.1] | 32.7
GCAGAAGGUGCGGAGGAUCACCCUGUAAGGAUAUGCAUUAGCAAGGAUAUACAGAGGAUCACCCUGUAGAAGGUGCACUACUCA [pwkr2 ssNG3 DX.3] | 1970
CACACAUGGUGAGGAUAUGCAGAGGAUCACCCUGUAGAAGGCAUCAGGGUAGAAGGUGCAAGGAUCACCUGUAAGGAUAUAUCC [pwkr2 ssNG1 DX.27] | 1430
CCUGACACUUGAGGAUAUGCUCAGGAUAACUGAGCAGAAGGCAGGAAAACCUGAGGAUCACCCAGGUAAGUCAGGAAUAAUAAA [Same State NG1 - A3C, U17G Submission 3B] | 21.7
UAUAUAUGGUGAGGAUAUGCAGAGGAUCACCCUGUAGAAGGCAUCAGGGUAGAAGGUGCAAGGAUCACCUGUAAGGAUAUAUCC [pwkr2 ssNG1 DX.30] | 1370

system: MS2 coat protein; experiment: apparent KD of MS2 coat protein, switch ON state; designed switch direction (-1 OFF switch, 1 ON switch): 1; higher = weaker reporter binding; conditions: FMN input: 0 or 200 uM; Eterna round: R93 (includes R88 designs)
In short: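 Designed RNA switches, transcribed on-chip from Illumina sequencing clusters, were titrated with SNAP-549-labelled MS2 coat protein from 0.7 or 1.5 nM to 3 µM in twofold steps. The solution was 100 mM Tris-HCl pH 7.5, 80 mM KCl, 4 mM MgCl2, with constant ligand or without it. Apparent KD is the median over each design's normalised cluster binding-curve fits.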

Sequence | apparent KD of MS2 coat protein [nM]
AGGAAACAUGAGGAUCACCCAUGUAAAAAUAUGGGAGGAUAUUGAAAGACGAAAGUCAAACAAGAAGGCCUAAAAG [Garnet 21] | 24
GAAAUACAUGAGGAUCACCCAUGUUAGGUGAUUCAAGGAUAUCAAGGUAAAUAAAAACCUUGAGAAGGUGAAUAAA [JR_SS001_Sub205] | 177
AUAAAACAUGAGGAUCACCCAUGUAAAAAUAUGGGAGGAUAUACGAAAUAAAAUAAAUACGUAGAAGGCCUAAAAA [SS! MT 20] | 20.2
GAAAUACAUGAGGAUCACCCAUGUUAGGUGGAUCAAGGAUAUCAAGGUAAAUAAAAACCUUGAGAAGGUGAAUAAA [JR_SS001_Sub204] | 87.8
AAAUAAAGAUACUAGGAUAUCCCGUGAGGUACAUGAGGAUCACCCAUGUGUAACGAACUCCCGCGGGAGAAGGAGUUGCACACGA [Inanuserra] | 38
AACAGGAAGAGAGAGGAUAUCCAAAGGAAAACAUGAGGAUCACCCAUGUAAAAGGUAGGAAAUUGGGAGAAGGCUCAAGAGAGAG [salish99-ss2-089] | 24.8
AGAAAUAAAAGAGAGGAUAUCCAAAAGAAAACAUGAGGAUCACCCAUGUAAAAGAAAAUAAAAUGGGAGAAGGCUCAAUAAAAGA [Modifying Jieux] | 17.9
UAACGCGCAUGCAAGGAUAUGUGCAGAGCUACAUGAGGAUCACCCAUGUGGUUAUGCUAUUGAAAACAGAAGGUGCCCUCGCUCA [Ceties] | 22.4
UUUAGUUGCGGGCAGGAUAUGUAUUAAAAUACAUGAGGAUCACCCAUGUGCGGGUAUAACACCCGACAGAAGGGCCAAUCGCGAC [Laonerce] | 18.3
AAAAAAAAAAGAGAGGAUAUCCAAAAAAAAACAUGAGGAUCACCCAUGUAAAAAAAAAAAAAAUGGGAGAAGGCUCAAAAAAAAAA [Helter Skelter 1] | 33.4
AGAAAUAAAAGGCAGGAUAUCCAAAAGAAAACAUGAGGAUCACCCAUGUAAAAGAAAAAAAAAUGGGAGAAGGGCCAAAUAAAGA [Mat - Same State 2 - Eli mod - D90] | 20.7
GGGAGACAUGAGGAUCACCCAUGUGAGAAGAGGCGAGGAUAUCGAAAGAAAGAAGAGAAACGAGAAGGCGCGAGUG [salish99-SS1-058] | 64.8
AAAAAACAUGAGGAUCACCCAUGUCAAAAGACGUGAGGAUAUGUACAGACUUCGGUCUGUACAGAAGGCAUGUAAA [SS1 - 1053] | 21.3
CGGCUACAUGAGGAUCACCCAUGUCAGCCGAGGGCAGGAUAUGUGGUUCAUUCUCAAGCAACAGAAGGGUCAAAAG [Istiacedi] | 16.9
GAAAAACAUGAGGAUCACCCAUGUAAUACAACAUCAGGAUAUUGAUUUUACUAUGUAUUGCAAGAAGGGAUGAAAG [Mat - Same State 1 - Hyphema mod - D100] | 57.2
